Publication PMC2923778 (Journal of Molecular Biology, 2010)

T1: mSPSB2(12–224) (murine, UniProt O88838 12-224)
T1 construct: murine SPSB2 (SSB-2), residues 12-224: lacks the first 11 residues and the C-terminal SOCS box; Uniformly 15N-labelled in one NMR experiment; also called mSPSB2ΔSB; 15N-mSPSB2(12–224); source: E. coli Origami B(DE3) pLysS, GST fusion, purified (glutathione-Sepharose, thrombin cleavage, gel filtration)
T1 sequence (looked up): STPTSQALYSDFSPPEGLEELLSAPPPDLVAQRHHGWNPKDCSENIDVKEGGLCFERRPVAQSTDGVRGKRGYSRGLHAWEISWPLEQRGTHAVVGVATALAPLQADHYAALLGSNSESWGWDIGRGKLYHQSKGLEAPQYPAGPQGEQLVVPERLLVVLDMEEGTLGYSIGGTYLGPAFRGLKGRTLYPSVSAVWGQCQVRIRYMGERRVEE

T2: hSPSB1(24–233) (human, UniProt Q96BD6 24-233)
T2 construct: human SPSB1 lacking the SOCS box region, residues 24-233; also called human SPSB1 SPRY domain; source: E. coli BL21(DE3)-R3-pRARE2, purified (Ni-Sepharose, TEV cleavage, size-exclusion, anion exchange); not shown: His6, N-terminal, cleaved
T2 sequence (looked up): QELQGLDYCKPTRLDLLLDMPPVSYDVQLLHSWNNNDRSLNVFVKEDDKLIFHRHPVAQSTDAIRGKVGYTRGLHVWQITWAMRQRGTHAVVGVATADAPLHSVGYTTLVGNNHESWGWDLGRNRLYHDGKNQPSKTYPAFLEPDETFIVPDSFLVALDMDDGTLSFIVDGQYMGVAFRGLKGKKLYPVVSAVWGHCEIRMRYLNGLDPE

T3: hSPSB2(26–219) (human, UniProt Q99619 26-219)
T3 construct: human SPSB2 lacking the SOCS box region, residues 26-219; also called human SPSB2 SPRY domain; source: E. coli BL21(DE3)-R3-pRARE2, purified (Ni-Sepharose, size-exclusion); not shown: His6, N-terminal, kept
T3 sequence (looked up): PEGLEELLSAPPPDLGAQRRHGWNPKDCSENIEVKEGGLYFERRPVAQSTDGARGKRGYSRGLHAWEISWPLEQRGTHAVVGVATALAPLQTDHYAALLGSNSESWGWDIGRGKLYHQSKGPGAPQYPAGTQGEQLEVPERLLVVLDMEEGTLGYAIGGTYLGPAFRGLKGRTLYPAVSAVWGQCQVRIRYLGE

T4: Par-4 (Homo sapiens, UniProt Q96IZ0)
T4 chain: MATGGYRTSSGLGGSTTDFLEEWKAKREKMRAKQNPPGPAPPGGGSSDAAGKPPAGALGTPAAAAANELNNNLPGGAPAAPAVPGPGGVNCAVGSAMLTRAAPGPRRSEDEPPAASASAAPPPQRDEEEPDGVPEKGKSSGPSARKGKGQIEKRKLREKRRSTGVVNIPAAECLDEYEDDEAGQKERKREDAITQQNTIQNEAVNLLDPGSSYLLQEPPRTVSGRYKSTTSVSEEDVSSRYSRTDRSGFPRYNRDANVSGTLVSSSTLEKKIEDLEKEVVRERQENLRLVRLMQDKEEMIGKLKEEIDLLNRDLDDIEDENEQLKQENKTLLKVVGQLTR


Assays:
mSPSB2(12–224) [1] = molecular target: T1, mSPSB2(12–224); test: ITC; 100 μM peptide titrated into 10 μM mSPSB protein; 22 °C; 20 mM Tris, 150 mM sodium chloride, 2.5 mM calcium chloride, pH 8.0; single binding site model; settings: both partners purified
mSPSB4ΔSB (murine) = test: as above
mSPSB1ΔSB (murine) = test: as above
mSPSB2(12–224) [2] = molecular target: T1, mSPSB2(12–224); test: as above; settings: both partners purified; remark: listed apart in the source
hSPSB1(24–233) = molecular target: T2, hSPSB1(24–233); test: ITC; 100 μM peptide titrated into 10 μM hSPSB protein; 20 °C; 50 mM Hepes pH 7.4, 150 mM NaCl, 1 mM DTT (hSPSB1) or 0.5 mM TCEP (hSPSB2, hSPSB4); single binding site model; settings: both partners purified
hSPSB2(26–219) = molecular target: T3, hSPSB2(26–219); test: as above; settings: both partners purified
Par-4 = molecular target: T4, Par-4; test: ITC

| Binder | Kd (mSPSB2(12–224) [1]) [µM] | Kd (mSPSB4ΔSB (murine)) [µM] | Kd (mSPSB1ΔSB (murine)) [µM] | also measured |
| --- | --- | --- | --- | --- |
| AAANELNNNLPGGA (human prostate apoptosis response protein-4 (hPar-4), residues 64-77; also called shorter wild-type hPar-4 peptide; source: synthetic peptide (GenScript Corporation)) [hPar-4(64–77)] | 3.2 | 0.213 | 0.21 | Kd (mSPSB2(12–224) [2]): 3.1 µM |
| AAANELNANLPGGA (human prostate apoptosis response protein-4 (hPar-4), residues 64-77, N71A; source: synthetic peptide (GenScript Corporation)) [[N71A]hPar-4(64–77)] | – | > 50 | > 50 | – |
| AAANELANNLPGGA (human prostate apoptosis response protein-4 (hPar-4), residues 64-77, N70A; source: synthetic peptide (GenScript Corporation)) [[N70A]hPar-4(64–77)] | – | > 50 | > 50 | – |
| DINNNNNIVEDVERKREFYI (DEAD-box RNA helicase VASA of Drosophila, residues 184-203; also called VASA-derived peptide; source: synthetic peptide (ThermoElectron GmbH)) [VASA(184–203)] | – | – | – | dH (hSPSB1(24–233)): -85.77 ± 0.837 kJ/mol; stoichiometry N (hSPSB1(24–233)): 0.96; Kd (hSPSB2(26–219)): 0.147 µM; dH (hSPSB2(26–219)): -100 ± 0.418 kJ/mol; stoichiometry N (hSPSB2(26–219)): 0.96 |
| SPSB2 (protein) MGQTALAGGSSSTPTPQALYPDLSCPEGLEELLSAPPPDLGAQRRHGWNPKDCSENIEVKEGGLYFERRPVAQSTDGARGKRGYSRGLHAWEISWPLEQRGTHAVVGVATALAPLQTDHYAALLGSNSESWGWDIGRGKLYHQSKGPGAPQYPAGTQGEQLEVPERLLVVLDMEEGTLGYAIGGTYLGPAFRGLKGRTLYPAVSAVWGQCQVRIRYLGERRAEPHSLLHLSRLCVRHNLGDTRLGQVSALPLPPAMKRYLLYQ | – | – | – | Kd (Par-4): 1.5 µM |
| NELNNNLPGGAPAAP (human prostate apoptosis response protein-4 (hPar-4), residues 67-81; source: synthetic peptide (ThermoElectron GmbH)) [hPar-4(67–81)] | – | – | – | Kd (hSPSB1(24–233)): 0.15 µM; dH (hSPSB1(24–233)): -55.23 ± 0.418 kJ/mol; stoichiometry N (hSPSB1(24–233)): 0.94; Kd (hSPSB2(26–219)): 1.52 µM; dH (hSPSB2(26–219)): -67.78 ± 0.418 kJ/mol; stoichiometry N (hSPSB2(26–219)): 1.18 |
| GTPAAAADNELNNNLPGGA (human prostate apoptosis response protein-4 (hPar-4), residues 59-77, A66D; source: synthetic peptide (GL Biochem)) [[A66D]hPar-4(59–77)] | 4 | 0.255 | – | – |

The next lines start with results.

| Kd (mSPSB2(12–224) [1]) [µM] | Kd (mSPSB4ΔSB (murine)) [µM] | Kd (mSPSB1ΔSB (murine)) [µM] | Binder | also measured |
| --- | --- | --- | --- | --- |
| 0.106 | 0.033 | 0.04 | AAANDINNNLPGGA (human prostate apoptosis response protein-4 (hPar-4), residues 64-77, E68D and L69I (DINNN motif as in VASA); also called double mutant; source: synthetic peptide (GenScript Corporation)) [[E68D,L69I]hPar-4(64–77)] | – |
| 0.208 | 0.047 | – | AAANDLNNNLPGGA (human prostate apoptosis response protein-4 (hPar-4), residues 64-77, E68D) [[E68D]hPar-4(64–77)] | – |
| 1.6 | 0.055 | – | AAANEINNNLPGGA (human prostate apoptosis response protein-4 (hPar-4), residues 64-77, L69I) [[L69I]hPar-4(64–77)] | – |
